Drawing on publication PMC3042988, “The activation mechanism of Irga6, an interferon-inducible GTPase contributing to mouse resistance against Toxoplasma gondii” (BMC Biology, 2011), this text covers response for two variants.

The chains are these.
B1: Irga6 (IIGP1), wild type, recombinant, GST cleaved off [mouse] / itself (parent)
chain: MGQLFSSPKSDENNDLPSSFTGYFKKFNTGRKIISQEILNLIELRMRKGNIQLTNSAISDALKEIDSSVLNVAVTGETGSGKSSFINTLRGIGNEEEGAAKTGVVEVTMERHPYKHPNIPNVVFWDLPGIGSTNFPPNTYLEKMKFYEYDFFIIISATRFKKNDIDIAKAISMMKKEFYFVRTKVDSDITNEADGKPQTFDKEKVLQDIRLNCVNTFRENGIAEPPIFLLSNKNVCHYDFPVLMDKLISDLPIYKRHNFMVSLPNITDSVIEKKRQFLKQRIWLEGFAADLVNIIPSLTFLLDSDLETLKKSMKFYRTVFGVDETSLQRLARDWEIEVDQVEAMIKSPAVFKPTDEETIQERLSRYIQEFCLANGYLLPKNSFLKEIFYLKYYFLDMVTEDAKTLLKEICL

Variants of B1 are the subject of the first test. The experiment in a line: light scattering (homo-oligomerisation). The note with it: with itself; 80 µM Irga6; 10 mM GTP; 37°C; peak of the time course, at about 10 min; read off a plot.
Turning to MGQLFSSPKSDENNDLPSSFTGYFKKFNTGRKIISQEILNLIELRMRKGNIQLTNSAISDALKEIDSSVLNVAVTGETGSGKSSFINTLRGIGNEERGAAKTGVVEVTMERHPYKHPNIPNVVFWDLPGIGSTNFPPNTYLEKMKFYEYDFFIIISATRFKKNDIDIAKAISMMKKEFYFVRTKVDSDITNEADGKPQTFDKEKVLQDIRLNCVNTFRENGIAEPPIFLLSNKNVCHYDFPVLMDKLISDLPIYKRHNFMVSLPNITDSVIEKKRQFLKQRIWLEGFAADLVNIIPSLTFLLDSDLETLKKSMKFYRTVFGVDETSLQRLARDWEIEVDQVEAMIKSPAVFKPTDEETIQERLSRYIQEFCLANGYLLPKNSFLKEIFYLKYYFLDMVTEDAKTLLKEICL [chain 1 E97R], the response is 9 a. u.

Staying with this test, now noted: with itself; 80 µM Irga6; 10 mM GTP; 37°C; peak of the time course, at about 15 min; read off a plot.
In the case of MGQLFSSPKSDENNDLPSSFTGYFKKFNTGRKIISQEILNLIELRMRKGNIQLTNSAISDALKKIDSSVLNVAVTGETGSGKSSFINTLRGIGNEEEGAAKTGVVEVTMERHPYKHPNIPNVVFWDLPGIGSTNFPPNTYLEKMKFYEYDFFIIISATRFKKNDIDIAKAISMMKKEFYFVRTKVDSDITNEADGKPQTFDKEKVLQDIRLNCVNTFRENGIAEPPIFLLSNKNVCHYDFPVLMDKLISDLPIYKRHNFMVSLPNITDSVIEKKRQFLKQRIWLEGFAADLVNIIPSLTFLLDSDLETLKKSMKFYRTVFGVDETSLQRLARDWEIEVDQVEAMIKSPAVFKPTDEETIQERLSRYIQEFCLANGYLLPKNSFLKEIFYLKYYFLDMVTEDAKTLLKEICL [chain 1 E64K], the response was 8.2 a. u.
